In test [1] the target is scMad1^E–scMad2 complex. Put plainly: ITC, Mps1-phosphorylated scBub1 fragment with scMad1^E–scMad2 complex. Type of test: binding, Saccharomyces cerevisiae. The settings on record: 20°C, 25 mM HEPES pH 7.5, 150 mM NaCl, scMad1 proteins 20 µM in cell, scBub1 fragment 300 µM injected, read-out: Kd, dissociation constant (affinity). How it is done: (§1) All isothermal titration calorimetry (ITC) assays were performed with a MicroCal Omega ITC200 titration calorimeter (GE Life Sciences) at 20°C. Recombinant scMad1^CTD protein or scMad1–scMad2 complexes were dialyzed into the HEPES Buffer I (25 mM HEPES, pH 7.5, 150 mM NaCl). Recombinant human Mad1^CTD protein was dialyzed into the HEPES Buffer II (25 mM HEPES, pH 7.5, 50 mM NaCl). For each titration, 300 μl of scMad1 proteins (20 µM) or human Mad1 (50 µM) were added to the calorimeter cell. The scBub1 phospho-peptides or purified scMps1-phosphorylated scBub1_449–530 fragment (300 µM) in the HEPES Buffer I or the human Bub1 phospho-peptides (500 µM) in the HEPES Buffer II were injected with an injection syringe in 19 2-μl portions. The raw data were processed and fitted with the NITPIC software package ([Keller et al., 2012]).

Test [2] has as its target T1, C-terminal domain (CTD) of scMad1 (Saccharomyces cerevisiae, UniProt P40957).
T1 sequence (P40957 633-749 limits assumed): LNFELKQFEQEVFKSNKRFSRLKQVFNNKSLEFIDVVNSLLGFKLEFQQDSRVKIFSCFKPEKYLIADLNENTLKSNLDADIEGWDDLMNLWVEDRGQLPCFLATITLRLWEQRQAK
Put plainly: ITC, scBub1 fragment or phospho-peptides with scMad1 CTD. As to conditions: 20°C, 25 mM HEPES pH 7.5, 150 mM NaCl, scMad1 20 µM in cell, scBub1 phospho-peptide or fragment 300 µM injected, read-out: Kd, dissociation constant. Type of test: binding. How it is done: as §1
(In general: Isothermal titration calorimetry measures the heat released or taken up as one component is titrated into another.)

The test system of test [3] is scMad1^E–scMad2 complex. In words: in vitro pull-down of scMad1^E–scMad2 by GST-scBub1 fragments. Type of test: binding, Saccharomyces cerevisiae. As to conditions: scBub1 fragments alone or co-expressed with scMps1 kinase domain. How it is done:
Expression of GST-BubR1^N (residues 1–370), GST-Mad2, GST-scBub1 fragments, GST-Mad1, and GST-scMad1 fragments in BL21(DE3) was induced by 0.1 mM isopropyl β-D-1-thiogalactopyranoside (IPTG) at 16°C overnight, after the OD600 reached 0.8. Mad1 and scMad1 fragments (Mad1^E) containing the Mad2-interacting motif (MIM) were co-expressed with Mad2 and scMad2, respectively. Fragments of scBub1 were co-expressed with His6-scMps1 (the kinase domain; residues 440–720). […] After sonication, lysates were cleared by centrifugation at 4°C. Supernatants were filtered by 0.45 µm filter and incubated with pre-equilibrated Glutathione Sepharose 4B beads (GE Healthcare). Protein-bound beads were washed with 40 volumes of the wash buffer I. The proteins were then eluted with reduced glutathione (Sigma) or cleaved with the PreScission protease. Eluates were dialyzed to the QA buffer (25 mM Tris-HCl, pH 8.0, 20 mM NaCl, 3 mM DTT), loaded onto a Resource Q column (GE Healthcare), and then eluted with the QB buffer (25 mM Tris-HCl, pH 8.0, 1 M NaCl, 3 mM DTT). Peak fractions were pooled and further purified with a Superdex 200 size exclusion column (GE Healthcare). […]
Recombinant bait proteins or bacteria lysates containing bait proteins were incubated with the appropriate affinity beads. […] The bead-bound proteins were analyzed by Coomassie blue staining or Western blotting. […]

B1: Phosphorylated scBub1449–530: Mps1-phosphorylated scBub1 fragment containing the CM (protein)
chain: SRSPTVTAFSKDAINEVFSMFNQHYSTPGALLDGDDTTTSKFNVFENFTQEFTAKNIEDLTEVKDPKQETVSQQTTSTNETN
modifications: phosphothreonine at 453, phosphothreonine at 455, phosphoserine at 458 (mass spectrometry; co-expressed with scMps1); left off: GST, N-terminal, state not stated
notes: Mps1-phosphorylated scBub1 fragment containing the CM
Regarding B1, the Kd (as a rule, the equilibrium constant for the complex coming apart) was 2210 nM at scMad1^E–scMad2 complex [1] and 2930 nM in test [2].

B2: scBub1_369–608: scBub1 fragment co-expressed with the kinase domain of scMps1 in bacteria (protein)
chain: RKLDVLVERRQDLPSSQPPVVPKSTRIEVFKDDDNPSQSTHHKNTQVQVQTTTSILPLKPVVDGNLAHETPVKPSLTSNASRSPTVTAFSKDAINEVFSMFNQHYSTPGALLDGDDTTTSKFNVFENFTQEFTAKNIEDLTEVKDPKQETVSQQTTSTNETNDRYERLSNSSTRPEKADYMTPIKETTETDVVPIIQTPKEQIRTEDKKSGDNTETQTQLTSTTIQSSPFLTQPEPQAEK
modifications: left off: GST, N-terminal, kept
notes: scBub1 fragment co-expressed with the kinase domain of scMps1 in bacteria
As to B2, the “binding to scMad1^E–scMad2 (in words)” value in the test with scMad1^E–scMad2 complex [3] is “only the phosphorylated scBub1 bound to the scMad1^E–scMad2 complex”.

The record behind these values is article PMC5268738, “A sequential multi-target Mps1 phosphorylation cascade promotes spindle checkpoint signaling” (eLife, 2017).
